Measured values published in patent publication US6528270.

Target: BCR-ABL kinase available in the cell (the BCR-ABL expressing cells)
Assay: 35S-methionine labelling, immunoprecipitation with anti-ABL or anti-GRB-2 antibodies

- percent of the BCR-ABL kinase available in the cell complexed with GRB-2: 50 to 90%
Substance: GRB-2 (form and cells not named in the sentence) (from UniProt P62993 1-217)
